Reference: the domain aggregation screens of Martell et al. (2025)

Assay: soluble fraction after stress (log2 fold change); higher = more stays soluble; pooled small domains, quantitative proteomics
Details: stress: 50 degC
How it was run: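 Custom libraries of small protein domains were pooled and measured in a high-throughput format, with quantitative proteomics as the read-out. Each library was stressed at 50°C. The value is the log2 fold change in the amount of each protein that stays soluble after stress, used as a measure of aggregation propensity; higher values mean more of the protein stays soluble.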

Sequence | soluble fraction (log2)
HMKDEGSLKVIGQMVVIGIPQSEAKRFANTYTVAQIRAALQYTQKRSEDKNASKLENVAAYFRQALVRNWG | -1.36
HMKDHKSKWMAKTELDSIAKNLSKKHAISLDYEEDGTRFYAGGQSPLGIGRLFTVFVAPRNGHWSDQLR | 0.189
HMKDLIGEAKAKELALGHAKLSASDVTFIHVELDWENGRRVYDVEFYSGAKEYDYEIDAKTGEIVSFDY | -1.27
HMKDLQHLVGEKGTTVTPLRPSGIALIKGSRYDVVSEGSFIQQGVAVEVIKVEGRRVVVSPLQED | -0.16
HMKDLSMPDVMGSSLNDAKKALTELGIMDITVRYVESGSSEGSIVGMEPPAGSKFAADGKVVLQVSSGS | 0.351
HMKDMKISTQNILKELATNYPDQTAFRKNVIESTAKSMGYTGKDFYPMLTAETRVKIGTYDLSALLQTV | -0.178
HMKDPSFELMSVAESFYRSGNVDHAVYALEKYLEVYADGDYTDRAHDLLSQARKGLTYPHGYPPLQI | -1.21
HMKDRDISNAVLNILSKDSDHNYNYKQIASVLGVKDPFVRKRIVSVLAQLTKNGQLEEISRGKYQIKN | -0.618
HMKDRNISSSVLEILSKDPDHTYNYKQIAALLGVKDAFIRKRIVTLLAQLAKDGHLDEISRGKYQIK | -1.02
HMKDVVAPMSGRVVRLMVAAGDEVVKRQALVVVEAMKMENVLTAPKEGRIKKVPVREGMTVEVGQTLVSFE | -0.221
HMKDYKSALQELIQSGDKRVISYHTLKETGPSHNREFEAAVKLDGNIILGVGKGKTKKEAEQNAAHEALKK | 0.172
HMKDYKSSLQERVQAVGGGQLIYRVNREEGPDHSKTFYMDLFLGDRLIGTGSGRNKKQAEQQAAKEAIERG | 0.0941
HMKDYKTIFQELIQKKHKTSPIYKSYEYNDMFKAEVYVNDKSFADGIGKSKKEAETDAAKKALEKIEMA | 0.0966
HMKDYQGEISVVASGERIDVYLFNYFNLFSRTKIKNHIKNGNILVNENIISPSYILKQNDKIAFNLGAPY | -2.39
HMKDYQGNILIQSEGDRIDKFLFKYFNSFSRTKIKNHIINGNILVNDKNTIPAYVLKINDKISYDLSTSVK | -1.04
HMKEAITVIGGKNNITFDASAQAEIGIYSMDGVQIQKKTISDNERIDLPAGMYVVTVKTGQANVSKVVVV | 0.00681
HMKEDSTIIERIISNLSSASLKTQKAFEYKLTDLMFRFSEGEYEWSSAMEVIREELLPFLNK | 0.0862
HMKEETEMVTIPDVTGKPLTEAANLLREAKLDYLAESTGTSVTKQMPLPGAEVMVNTTVLLYTG | 0.156
HMKEEVMVPNVVGKELSAALLEMQVKELYPKLQLKYSNFVDDKGTVLEQSPPAGSIVKAGRRINLVVSRGA | 0.144
HMKEIKAPNKINAHLIEEWRSQHPTELFPEEKVDLIYYKGEEYYFVIEEKNELGEIEEWYFAYDGGIDYV | 0.106
HMKEILTNESIIQFVKDKVSEEQIIYKINNSPIDFKLDVNSMVSLAKQNVSSTIIIAMENAMNN | -0.256
HMKELLQEMIMDILRAIASPNIDIKRKTLDLVLDLITPRNIDNVTGMLKTEVVKSQSENTSDVG | -0.623
HMKELTYSDFRKAYPDIQGNLFGMAERYITALDWTEVAAKVETDEELRKERDIFYLVKTYIRKYVQ | -0.487
HMKELVAGQTVRVHHSIGFGQTGTVTALNSLKTTLPNGLRTNTASILFQNNEKVVLPISNFDIIES | -0.139
HMKELVEDFASRISNARQSKGWNQSELAKRMAETVNVVKSAESGKSPTDSVIKKLERVLGIILM | -0.591

Sequence | soluble fraction (log2)
HMKEQLITVYVSGAVARPGLYELPAGIRAQEAVEAAGGFTEAANHEKVNLAKKLKDGSQVNVPALK | -0.0032
HMKEQYDLNDREQQFISLVANGLNNKEIAETLFLSEGTVRNYLSNLLDKLGLRDRTQLAIFFYQHL | -0.953
HMKERLLDPYKDFIVNYLQKYPYTPAAVMHDKLKESYPDFPKVDPKTIYNFVMLLRRDFNIPKV | -0.306
HMKETERKILQAVLGLPLKYRDVIHLFYYEEMSVKEIAEVLHRQESTVTSQLTRARGILKKNL | 0.09
HMKETLSDTVSRKLEDMITTQMKAGNRLPTEMVLAEMYSVGRSTIRESLKALSSKGLIVRKKDGTFVSDRV | -0.109
HMKEVKAPMPGMVLRVEVAPGQEVQEGDPLLVLEAMKMENNLKSPASGTIKSVHVEAGKAVEKGAVLVVF | -0.0671
HMKEVKRDQVIEAARKLFHQFGFKKVSMDEIAKEAGVTKKTIYMYFESKEELLKYFIQEEISN | -0.224
HMKEVVKVTITPSEKLKSQYPDALVSIDGKFYDLGILNNPVEFYMDKDHKISIIWSTAELVESFRI | -0.00922
HMKEYRKEGHLYFVTEDRNNEIYLWDFTDKPKHEFKEIITSVELQKVAKEGAMLQYKNGKYELYS | -0.171
HMKFDVNAAIRAVLNVTVDKGATLERIMKETNLTSDQLVLPIALLMKTERLHFKRSGTHEVYVSVGKAPDK | -3.02
HMKFGEQIKERRQELDLTQAEVAEKLFVTRQAVSNWEHNKTYPDLNMLVKISNVYQISLDSLLR | -1.23
HMKFHENLIALRRREGWSQEELGNRIGVTRQTVSKWELGLTTPELEKLVQLADVFGMTTDQLVGR | -0.146
HMKFNLWLSEKLKKLGLTQRKLAEQAGVSPATVSRWLSGEFEPDLTNLRKINQVLGVPERELFLQLGL | 0.154
HMKFPNVGENLRLLRQEMGISLDKASKMTGVSKAMLGQIERGESSPTVSTLWKISSGFKINFTTLLSE | -2.38
HMKFPPASDIRRMRKAIDVTQTELAKQSGVSQSTIAKIERGRISASYDTVVKLFETLDEMAK | -0.141
HMKFTPPTLEQIKNEMLLKTDEYNADIQSDRFFTYYDSNGWMVGKNKMKKFLVSLVAVFAATSA | -0.446
HMKFYIHEIIGFNAVDKVAGIVGKVININEDSPQKKLVVNYNGKEVFIPLVDEIVRKIDKQKNEVLITMP | 0.155
HMKGEIEELLYEEVTKDNNTTFLRIYIKLNDEYNTLLNLGIIGIKTEEKVNELVNLGYKKVL | -2.45
HMKGISRVTMELIIDALKKETEPRTVQWIAEKTGLATQTTYRYLQYMVSEQTVEALNVYGKVVSLKAK | -0.314
HMKGKWKPIILWQLSKAPQSLSGLRHSIAGISQKMLIQHLNELIHFGFVVRTTFEGYPLKVEYDLTDRGR | -0.231
HMKGLDAAVVDLFKSKGASIVFAGNRLSLSGEVADQATKDELLAKAKAILASLGASVSLDDKLMVKGAKAS | 0.0298
HMKGMIKVASMSLGADLGLYSRHLKYLGIVHRVVEESGGQSVYIQKLNDLHTAKESLELYLKNELKI | -1.19
HMKGQNRSEITAGARVKVVQKQDQRTGALTEGIVRDILTRSPHHPHGIKVRLESGIVGRVKDVL | 0.0363
HMKGSIMIETILKELKKNNKGFNFLLEKFDISEDELMKIINDLIHDKKVFLNSNNKYEIVSD | -0.238
HMKGTVLAPGIILNADDQRFTYLQEDVASVAKDGAAIVLKQGDEVDFIADGQTAKQIYLTKT | 0.0649

Sequence | soluble fraction (log2)
HMKGVPGIGDYVKLSGGSTVGKVLSISGKKAEVAFGLLRTTTELSKLEKVRKPKELLQSGVSS | 0.269
HMKGVTVDGDNITVDGEKQTLISVNKNLDGDVVSYTYRTADGKLRTSRNVEVAQEINKQQLLKSIDAQ | 0.0821
HMKGWPDREQAEKIWQQGIDYAIEHHTMSPQIVKEYIFHTQGIARSAALIAARLPDMDTEKAYVLGLLHD | -0.214
HMKIAEALNLRGDADSYERQEAIWLLEHIVGMSALELKYRGEQDLTEDQLQQYRSGLQRLEQGEPLAYVIG | -0.396
HMKIDLKQIEGVLDELAKVKGSLITILQKTQETYGYLPKEAIIYISERTGIAESEIMGVATFYTQFRL | -0.105
HMKIDLTPQEEKIYSVLETELTLDEIIMKTSIKAGEALAILMDLELKKLVASVAGGKYRRKA | 0.0271
HMKIEETLGKTAQVYIPIPQYLSGIGKVTLSVRGSLRELDAMTEEEKIPSNTIVRIVKVQDQVLFVKRA | -0.74
HMKIHNSIREITDFDRKQNSNIPSDAKYRIVFYTPQGNKTIIPEELQGLQYYRSKELAEIALNKKLNSN | -0.132
HMKILKQLEAIIEKEGLNESAKQFYLREISELDKEKQQEIINLVDKMEQAGFKNNLASAFSEVTEDIPQF | -0.0195
HMKILNYQSLVGKKGITKSMLRPAGIVEIEGRRYDVVTRGEFIEPGKMITVDEVQGNRIIVQIERE | -0.165
HMKIPIIYQPLKNAKRIKIYIPYELKELRTIFKKINTTFWHPNQKLWSIIYTQENVALIKNLFGKNYKIVN | -0.547
HMKIQEVDYSTFLNMLNEKSIAQVEIQDNQIAFNSNQEGNKQIYVTGRIEEDTELVNRLQAAGVQFSRV | 0.079
HMKIRIIKTASNAKAVQIVSYKNNKRIVLQHIGSAHTDETLNDLKILAEEWIKDYNHQLSIF | -2.49
HMKISDLPAAQVYREIVHAWPKAAAYADLAPINNGGMQRWRDVVHEWVLRGYNPANLRGMLEWYKAGIPTR | -0.398
HMKISDMIETNLKFLRGKHSISQAELAESLGIPRTTLSAYERGFVEPNIELMLKMAKYFNVSLDDLIAYN | -1.88
HMKISQSRKAGKLVLESELKRGGVSLDQYRGGRMSRILELIGVKSLNELLTDLGTGKKTGALVAERFFSGL | -0.444
HMKITFNPVSSGRLDIILAEKTGYTRSYVKQLVEKQAVTINGEAAKKSGQNVKAGDEIALDEP | 0.0957
HMKITIDSVERDETFRLIWGTGWKPKNKIQELAAIQAKKNGLGRMNEVAGLAAWRGIWQQVAEQVAQEVL | -1.04
HMKITKIWFTADHIFGRDEEGKEYSQSLLWYPKLSAASDEERSQYTFGYDGIHWRSLDEDISFESF | -3.98
HMKIVFGHVKWFDIDKGFGFLVLEDEGGDVLLHANVLKNFGRTSVSEDTKIEFEFLETDKGRQVSTIYNIL | -3.85
HMKIVQDIAFSDFLNEVEKDNVLDVNIKGDLINGNLADGRKFKTYTPYDPNLIEKLSNKNVTINVEPYN | 0.198
HMKKAENEKLNIPYDVTEFLASSIKDDIRMMEGAMVKLLALSSLTKQDITQSLAKRVIQDVLGSSA | -0.097
HMKKAMIISTKRGTPAAELDKIIREFEAKGLSVTMIRGTDYNVFGLVGDTTVIDEKQVRANPYVENVQRV | 0.135
HMKKATYDVMVREALVSFKKKGATLQSIKKKIKADYAIEANATAVKSAIQKGMEAGSIRKSYDLYFFMD | -2.12
HMKKDDLKQINGIGTTIEKKLNEIDIYNFYQISNLSKEDIETISEKIKTFPGKIERDNWVGQAQELL | 0.0191
